Measured values as given in the supplement of paper PMC10567573.

B1: TCAP (parent)
chain: YQRVLPLPIFTPAKMGATKEERED
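Further: lentivirally expressed fusions sorted by FACS into six bins by GFP to DsRed ratio, PSI derived from sequencing read proportions per bin multiplied by bin number.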

Variants of: B1
Assay: protein stability index of a GFP-peptide fusion (GPS, HEK-293T) (PSI 1-6); higher = more stable
Settings: c terminus: a fixed tail appended
For YQRVLPLPRFTPAKMGATKEERED [I9R], the protein stability index was 4.16.
Work on YQRVLPLPMFTPAKMGATKEERED [I9M] yielded a protein stability index of 3.07.
YQRVLPLPSFTPAKMGATKEERED [I9S] gave a protein stability index of 3.79.
YQRVLPLPFFTPAKMGATKEERED [I9F] gave a protein stability index of 2.31.
Work on YQRVLPLPPFTPAKMGATKEERED [I9P] yielded a protein stability index of 4.02.
Work on YQRVLPLPAFTPAKMGATKEERED [I9A] yielded a protein stability index of 3.96.
Variant YQRVLPLPYFTPAKMGATKEERED [I9Y] has a protein stability index of 2.58.
YQRVLPLPVFTPAKMGATKEERED [I9V] gave a protein stability index of 2.88.
YQRVLPLPKFTPAKMGATKEERED [I9K] showed a protein stability index of 3.96.
Work on YQRVLPLPCFTPAKMGATKEERED [I9C] yielded a protein stability index of 3.04.
In the case of YQRVLPLPNFTPAKMGATKEERED [I9N], the protein stability index is reported as 4.47.
YQRVLPLPHFTPAKMGATKEERED [I9H] gave a protein stability index of 2.83.
YQRVLPLPTFTPAKMGATKEERED [I9T] showed a protein stability index of 4.02.
YQRVLPLPWFTPAKMGATKEERED [I9W] gave a protein stability index of 2.2.
With YQRVLPLPGFTPAKMGATKEERED [I9G] the protein stability index was 3.79.
Variant YQRVLPLPDFTPAKMGATKEERED [I9D] has a protein stability index of 3.63.
YQRVLPLPEFTPAKMGATKEERED [I9E] showed a protein stability index of 4.51.
Work on YQRVLPLPLFTPAKMGATKEERED [I9L] yielded a protein stability index of 2.41.
For YQRVLLLPIFTPAKMGATKEERED [P6L], the protein stability index was 1.73.
YQRVLGLPIFTPAKMGATKEERED [P6G] gave a protein stability index of 1.9.
In the case of YQRVLSLPIFTPAKMGATKEERED [P6S], the protein stability index is reported as 1.82.
Variant YQRVLVLPIFTPAKMGATKEERED [P6V] has a protein stability index of 2.17.
Work on YQRVLKLPIFTPAKMGATKEERED [P6K] yielded a protein stability index of 1.89.
YQRVLTLPIFTPAKMGATKEERED [P6T] gave a protein stability index of 2.05.
For YQRVLALPIFTPAKMGATKEERED [P6A], the protein stability index was 2.09.
YQRVLDLPIFTPAKMGATKEERED [P6D] showed a protein stability index of 2.62.
Work on YQRVLHLPIFTPAKMGATKEERED [P6H] yielded a protein stability index of 2.11.
YQRVLELPIFTPAKMGATKEERED [P6E] gave a protein stability index of 2.22.
With YQRVLCLPIFTPAKMGATKEERED [P6C] the protein stability index was 1.72.
YQRVLILPIFTPAKMGATKEERED [P6I] gave a protein stability index of 2.19.
Variant YQRVLQLPIFTPAKMGATKEERED [P6Q] has a protein stability index of 1.91.
With YQRVLFLPIFTPAKMGATKEERED [P6F] the protein stability index was 2.25.
With YQRVLYLPIFTPAKMGATKEERED [P6Y] the protein stability index was 2.35.
YQRVLRLPIFTPAKMGATKEERED [P6R] gave a protein stability index of 1.66.
YQRVLWLPIFTPAKMGATKEERED [P6W] gave a protein stability index of 1.56.
For YQRVLNLPIFTPAKMGATKEERED [P6N], the protein stability index was 1.35.
YQRVLMLPIFTPAKMGATKEERED [P6M] gave a protein stability index of 1.65.
Variant YQRVLPSPIFTPAKMGATKEERED [L7S] has a protein stability index of 2.31.
Variant YQRVLPWPIFTPAKMGATKEERED [L7W] has a protein stability index of 2.86.
With YQRVLPMPIFTPAKMGATKEERED [L7M] the protein stability index was 2.43.
YQRVLPAPIFTPAKMGATKEERED [L7A] gave a protein stability index of 1.75.
Work on YQRVLPCPIFTPAKMGATKEERED [L7C] yielded a protein stability index of 1.42.
For YQRVLPDPIFTPAKMGATKEERED [L7D], the protein stability index was 2.1.
Variant YQRVLPYPIFTPAKMGATKEERED [L7Y] has a protein stability index of 2.71.
Variant YQRVLPKPIFTPAKMGATKEERED [L7K] has a protein stability index of 3.33.
YQRVLPVPIFTPAKMGATKEERED [L7V] showed a protein stability index of 2.4.
In the case of YQRVLPHPIFTPAKMGATKEERED [L7H], the protein stability index is reported as 4.72.
With YQRVLPIPIFTPAKMGATKEERED [L7I] the protein stability index was 2.19.
YQRVLPRPIFTPAKMGATKEERED [L7R] gave a protein stability index of 3.08.
For YQRVLPGPIFTPAKMGATKEERED [L7G], the protein stability index was 2.46.
YQRVLPFPIFTPAKMGATKEERED [L7F] gave a protein stability index of 1.76.
YQRVLPTPIFTPAKMGATKEERED [L7T] showed a protein stability index of 1.73.
In the case of YQRVLPNPIFTPAKMGATKEERED [L7N], the protein stability index is reported as 1.54.
Variant YQRVLPEPIFTPAKMGATKEERED [L7E] has a protein stability index of 2.61.
In the case of YQRVLPQPIFTPAKMGATKEERED [L7Q], the protein stability index is reported as 2.56.
YQRVLPPPIFTPAKMGATKEERED [L7P] gave a protein stability index of 2.59.
YQNVLPLPIFTPAKMGATKEERED [R3N] showed a protein stability index of 2.46.
For YQSVLPLPIFTPAKMGATKEERED [R3S], the protein stability index was 2.3.
Variant YQYVLPLPIFTPAKMGATKEERED [R3Y] has a protein stability index of 4.55.
YQMVLPLPIFTPAKMGATKEERED [R3M] gave a protein stability index of 3.43.
YQPVLPLPIFTPAKMGATKEERED [R3P] gave a protein stability index of 1.55.
YQVVLPLPIFTPAKMGATKEERED [R3V] gave a protein stability index of 2.09.
YQLVLPLPIFTPAKMGATKEERED [R3L] gave a protein stability index of 1.86.
Variant YQQVLPLPIFTPAKMGATKEERED [R3Q] has a protein stability index of 2.78.
With YQWVLPLPIFTPAKMGATKEERED [R3W] the protein stability index was 2.69.
For YQTVLPLPIFTPAKMGATKEERED [R3T], the protein stability index was 2.05.
Variant YQRVLPLPIFTPDKMGATKEERED [A13D] has a protein stability index of 2.95.
Variant YQRVLPLPIFTPLKMGATKEERED [A13L] has a protein stability index of 1.76.
For YQRVLPLPIFTPKKMGATKEERED [A13K], the protein stability index was 2.44.
For YQRVLPLPIFTPGKMGATKEERED [A13G], the protein stability index was 2.38.
Variant YQRVLPLPIFTPEKMGATKEERED [A13E] has a protein stability index of 2.9.
YQRVLPLPIFTPIKMGATKEERED [A13I] gave a protein stability index of 2.18.
Work on YQRVLPLPIFTPFKMGATKEERED [A13F] yielded a protein stability index of 2.04.
Work on YQRVLPLPIFTPCKMGATKEERED [A13C] yielded a protein stability index of 1.72.
Variant YQRVLPLPIFTPHKMGATKEERED [A13H] has a protein stability index of 1.69.
Variant YQRVHPLPIFTPAKMGATKEERED [L5H] has a protein stability index of 2.08.
Variant YQRVCPLPIFTPAKMGATKEERED [L5C] has a protein stability index of 1.86.
Variant YQRVPPLPIFTPAKMGATKEERED [L5P] has a protein stability index of 2.33.
Work on YQRVTPLPIFTPAKMGATKEERED [L5T] yielded a protein stability index of 1.98.
In the case of YQRVEPLPIFTPAKMGATKEERED [L5E], the protein stability index is reported as 2.42.
YQRVRPLPIFTPAKMGATKEERED [L5R] showed a protein stability index of 2.7.
Work on YQRVIPLPIFTPAKMGATKEERED [L5I] yielded a protein stability index of 1.87.
Work on YQRVQPLPIFTPAKMGATKEERED [L5Q] yielded a protein stability index of 2.03.
YQRVDPLPIFTPAKMGATKEERED [L5D] showed a protein stability index of 3.06.
Variant YQRVKPLPIFTPAKMGATKEERED [L5K] has a protein stability index of 2.13.
Variant YQRVSPLPIFTPAKMGATKEERED [L5S] has a protein stability index of 1.97.
Work on YQRVGPLPIFTPAKMGATKEERED [L5G] yielded a protein stability index of 2.89.
Work on YQRVVPLPIFTPAKMGATKEERED [L5V] yielded a protein stability index of 1.96.
Variant YQRVNPLPIFTPAKMGATKEERED [L5N] has a protein stability index of 1.8.
Variant YQRVWPLPIFTPAKMGATKEERED [L5W] has a protein stability index of 2.81.
In the case of YQRVFPLPIFTPAKMGATKEERED [L5F], the protein stability index is reported as 2.52.
Work on YQRVYPLPIFTPAKMGATKEERED [L5Y] yielded a protein stability index of 2.37.
YQRVMPLPIFTPAKMGATKEERED [L5M] gave a protein stability index of 1.9.
YQRVAPLPIFTPAKMGATKEERED [L5A] gave a protein stability index of 2.05.
